Assay results published in the nanobody polyreactivity screen of Harvey et al. (2022).

Assay: yeast display, Sf9 membrane polyspecificity reagent, FACS + sequencing; frameworks hold sequencing errors
Summary of the method: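 Sorting gates, low and high (top ~1%), were placed on anti-HA fluorescence to track expression and on streptavidin fluorescence to track reagent binding. A clone's polyreactivity label is taken from the gate it came out of. The reagent was 10% biotinylated, detergent-solubilized Sf9 membrane, applied for 1 hour at 4 °C to galactose-induced yeast display cells.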

Sequence: QVQLVESGGGLVQAGGSLRLSCAASGFIISPYAMGWYRQAPGKERELVAAISWSGVSTYYADSVKGRFTISRDNAKNTVYLQMNSLKPEDTAVYYCATYRPVYYWGQGTQVTVSS
- polyreactivity (PSR sort gate): high polyreactivity

Sequence: QVQLEESGGGLVQAGGSLRVSCAASGSILIPNAMGWYRQAPGKERELVASISKSGGSTYYADSVKGRFTISRDTAKNTVYLQMNSLKPEDTAVYYCAAAFVSVRKRYGYWGQGTQVTVSS
- polyreactivity (PSR sort gate): high polyreactivity

Sequence: QVQLVESGGGLVQAGGSLRLSCSASGFIFFRYSMGWYIQAPGKERELVAAINSSGDSTYADSVKGRFTISRDNAKNTFYLQMNSLKPEDTAVYYCATGGRTEIWYPTLDYWGQGTQVTVSS
- polyreactivity (PSR sort gate): low polyreactivity

Sequence: QVQLVESGGGLVQSGGSLRLSCAASGRIFNIYAMGWYRPAPGKERELVAAISGSGGRTSYADSVKGRFTISRDNAKNTVYLQMNSLKPEDTAVYYCAADYSFYTSFRYDYWGQGTQVTVSS
- polyreactivity (PSR sort gate): low polyreactivity

Sequence: QVQLVESGGGLVQAGGSLRLSCAASGRIFSQYAMGWNRQAPGKERELVAAITWRGASTYYADSVKGRFTISRDNAKNTVYLQMNSLKPEDTAVYYCAAGYPQGRYYRVRWVGYWGQGTQVTVSS
- polyreactivity (PSR sort gate): high polyreactivity

Sequence: QVQLVESGGGLVQAGGTLRLNSAASGRNFYDYAMRWYRQAPGKERELVASISGGGSTDYADSVKGRFTISRDNAKNTVDFQMNSLNPEDTAVYYCAAQYYLYRSRFDYWGQGTQVTVSS
- polyreactivity (PSR sort gate): high polyreactivity

Sequence: QVQLVESGGGLVQAGGRLRLSCAASGFTFPLYTMGWYRQEPGKERELVAAITWSGGSTYADSLKGRFTISRDNAKNTVYLQMNSLNPEDTEVYYCNRRLQPRGAGHNSWGQGTQVTVSS
- polyreactivity (PSR sort gate): high polyreactivity

Sequence: QVQLVESGGGLVQAAGSLRLSCAASGFIFRYNVMGWYRQAPGKERELVAAISTSGGRTYFADSEKGRFTISRDNAKNTGYLQMNSLKPEDTEVYYCNAVKSEGQKVRDGYYWGQGTQVTVSS
- polyreactivity (PSR sort gate): high polyreactivity

Sequence: QVQLVESGGGLVQAGGSLRLSCAASGRIFYLYAMGWYRQAPGKERELVAAITNSDTSTYYADSVKGRFTISRDNAKNTVYLQMNSLKPEDTAVYYCAVSTQYYYFDYYYWGQGTQVTVSS
- polyreactivity (PSR sort gate): high polyreactivity

Sequence: HVQRVESGGGLVQAGASLRLSCAASGGIFSPNAMGWYRQAPGKERELVAAISSNGGSTNYADSVKGRFTISRDNAKNTVYLQMNSLKPEDTAVYYCAGLQKRRSYWRPFYWGQGTQVTVSS
- polyreactivity (PSR sort gate): low polyreactivity

Sequence: QVQLVESGGGLVQAGGSLRLSCAASGRTSGRYAMGWYRQAPGKERELVAGITSSGGSTYYADSVKGRFTISRDNAKNSVYLQMNSLKPEDTAVYYCAKVWGAKGKTYRMYSWGQGTQVTVSS
- polyreactivity (PSR sort gate): high polyreactivity

Sequence: QVQLVESGGGLVQAGGSLRLSCAASGSIFDPNAMGWYRQAPGKERELVAAITSGGGSTYYADSVKGRFTISRDNAKNTVYLEMNSLKPEDTAVYYCNKVFVLPYKFVAWFDYWGQGTQVTVSS
- polyreactivity (PSR sort gate): low polyreactivity

Sequence: QVQLGESGGGLVQAGGSLRLSCAASGSTFVWYAMGWYRQAPGKERELVANISGSGGSTYYADSVKGRFTISRDNAKNTVYLQMNSLKPEDNAVYYCAAQRQWRTQYDDDYWGQGTQVTVSS
- polyreactivity (PSR sort gate): low polyreactivity

Sequence: QVQLVESGGGLVQAGGSLRLSCAASGNTFSDYAMGWYRQAPGKERELVAAISSSGVRTYYADSVKVRFTISRDNAKNTVYLHMISLNPEDTAVYYCAADNYYYRFVAAMDYWGQGTQVTVSS
- polyreactivity (PSR sort gate): high polyreactivity

Sequence: QVQLVESGGGFVQARGSLRLSCAASGSIFWLYAMGWYSQAPGKERELVAAISWSTGGTYYADSVKGRFTISRDNAKNTVYLQMNSQKPEDTAVYYCNKLWVGKFKRYEFGYWGQGTQVTVSS
- polyreactivity (PSR sort gate): low polyreactivity

Sequence: QVQHVESGGGLVQAGGSLRLSSAASGRIFSWNAMVWYRQAPGKERELVAAITNGGGTYYADSVKGRFTISRDNAKNTVYLQMNSLKPEDTAVYYCNAYRRKLWYPTGMYWGQGTQVTVSS
- polyreactivity (PSR sort gate): high polyreactivity

Sequence: QVQLVESVGGLVQAGGSLRLICAASGSTFRVNAIGWYRQAPGKEREFVAAITGNAGSTYYADSVKGRFTISRDNAKNTVYLQMNSLKPEDTAVYYCAAGLPGYDGDYWGQGTQVTVSS
- polyreactivity (PSR sort gate): low polyreactivity

Sequence: QVQLVESGGGLVQAGGSLRLSCAASGGIFTAYPMGWSRQAPGKERELVATITRGGSTNYADSVKGRFTISRDNAKNTVYLQMNSLKPEDTAVYYCNARYSWRSKWWTEDDYWGQGTQVTVSS
- polyreactivity (PSR sort gate): high polyreactivity

Sequence: QVQLVESGGGLVQAGGSLRLSCAASGSTFKYYAMGWYRQAPGKERELVATITRRSGSTYYADSVKGRFTISRDNAKNTVYLQMNSLKPEDTAVYYCNAYGPYKYNYWGQGTQVTVSS
- polyreactivity (PSR sort gate): high polyreactivity

Sequence: QVHLVESGGGLVQAGGSLRLSCAASGRTFSWNALGWYRQAPGKQRELVAVISRGDSTNYADSVKGRFTISRDNEKNTVYLQMNSLKPVDNAVYYCAADGYPPGYGYWGQGTQVTVSS
- polyreactivity (PSR sort gate): low polyreactivity

Sequence: QVQLVESGGGLVQAGGSLRLSSAASGSIFSYNVMGWYRQAPGKERELVAAISWNDGSTYYADSVKGRFTISRDNAKNTVYLQMNSLKPEDTAVYYCAAEYGRRWHNELDYWGQGTQVTVSS
- polyreactivity (PSR sort gate): low polyreactivity

Sequence: QVQLVESGGGLVQAGGSLRLSCAASGSIFRKYAMGWYRQATGKERELVAAIRSSGGSTYYADSVKGRFTISRDNAKNTVYLQMNSLKPEDTSVYYWAATTGEHEDFRGQGTQVTVSS
- polyreactivity (PSR sort gate): high polyreactivity

Sequence: QVQLVESGVGLVQARGSLRLSCAASGYIFTIYAMGWYRHAPGKERELVAAITWSGATTYYADSVKGRFTISRDNAKNTVYLQMNILKPEDTAVYYCNADYWHYYEDYDSWGQGTQVTVSS
- polyreactivity (PSR sort gate): low polyreactivity

Sequence: QVQLVESGGGLVQAGGSLRLSCAASGSIFRYNAMGWYRQAPGKERELVAAISGRGTSTYYADSVKGRFTISRDNAKNTVYLQMNSLKPEDTAVYYCAAVYFRTFLVEYYYWGQGTQVTVSS
- polyreactivity (PSR sort gate): high polyreactivity

Sequence: QVQLVESGGGLVQAGGSLRLSCAASGSIFRGYTMGWYRQAPGKERELVAAISWSGGSTYYADSVKGRFTISRDNAKNTVYLQMNSLKPEDTAVYYCAAGDYYHRIFLWYDYWGQGTQVTVSS
- polyreactivity (PSR sort gate): low polyreactivity

Sequence: QVQLVESGGGLVQAGGSLRLSCAASGRTFWDYAMGWYIQAPGKEREFVAAINTSGGRTYYADSVKGRFTISRDNAKNTVYLQMNSLKPEDTAVYYCAARTRDRAYDSWGQGTQVTVSS
- polyreactivity (PSR sort gate): high polyreactivity

Sequence: QVQLVESGGGLVQAGGSLRLSCAASGIIFRTNAMGWYRQAPGKEREFVAAISAGGTRTYYADSVKGRFTISRDNAKNTVYLQMNSLKPEDTAVYYCAAASGYDYWGQGTQVTVSS
- polyreactivity (PSR sort gate): high polyreactivity

Sequence: QVQLVESGGGLVQSGGSLRLSCAASGLTFMVYAMGWYRQAPGKEREFVAAITFSGGRTYYADSVKGRFTISRDNAKNTVYLQMNSLKPEDTAVYYCNAEAWSLGYDYWGQGTQVTVSS
- polyreactivity (PSR sort gate): low polyreactivity

Sequence: QVQLVESGAGLVQAGGRIRLTCAASRSILRGYAMGWYRQAPGKERELVAAITWNGGSTYYADSVKGRFTISRDNANNTVYLHMISLKPEDTAVYYFNRAIGPYSYPDNYWGQGTQVTVSS
- polyreactivity (PSR sort gate): high polyreactivity

Sequence: QVQLVESGGGLVQAGGSLRLSCAASGRTFTIYAMGWYRQAPGKERELVAGITSAGRTYYADSVKGRFTISRDNAKNTVYSQMNSLNPEDTAVDYCAASGSYAIVWGDQYYGYYYWGQGTQVTVSS
- polyreactivity (PSR sort gate): high polyreactivity

Sequence: QVQLVESGGGLVQAGGSLRFSCAASGRIFYLNAMGWYRQAPGKERELVAAISRSGGRTYYADSEKGRFTISRDNAKHTVYLQMNSLKPEDTAVYYCAADTAGATPERNYWGQGPQVTVSS
- polyreactivity (PSR sort gate): high polyreactivity

Sequence: QVQLVESGGGLVQAGGSLRLSCAASGRTFLWYAMGWYRQAPGKERELVAAITTAGSTYYADSVKGRFTISRDNAKNTVYLQMNSLKPEDTAVYYCNRLTYAYPPPVLGVGHDSWGQGTQVTVSS
- polyreactivity (PSR sort gate): low polyreactivity

Sequence: QVQLVESGGGLVQAGGSLRLSCAASGIIFRRYAMGWSRQAPGKERELVAAITHRGSTYYADSVKGRFTISRDNAKNTVYLQMNSLKPEDTAVYYCAADGFTRWGRYDYWGQGTQVTVSS
- polyreactivity (PSR sort gate): high polyreactivity

Sequence: QVQLVESGGGLVQAGGSLRLSCAASGRIFPYYAMGWSRQAPGKEREFVAAITKRGGSTSYADSVKGRFTISRDNAKNTVYLQMNSLKPQDTAVYYCNARLYRGQDRYDYWGQGTQVTVSS
- polyreactivity (PSR sort gate): low polyreactivity

Sequence: QVQLVESGGGLVQAGGSLRLSCAASGVIFYDYAMGWYRQAPGKERELVAAISSGGSTNYADSVKGRFTISRDNAKNTVYLQMNSLKPEDTAVYYCAADDRSYATWKRDYDYWGQGTQVTVSS
- polyreactivity (PSR sort gate): low polyreactivity

Sequence: QVQLVESGGGLVQAGGSLRLSCAASGRTFRRYAMGWYRQAPGKEREFVAAIRYSGGITYYADSVKGRFTISRDNAKNTVYLQMNSLKPEDTAVFYCAAYGWGNRWYSRFDYWGQGTQVTVSS
- polyreactivity (PSR sort gate): high polyreactivity

Sequence: QVQLVESGGGLVQAGGSLRFSCAASGRIFRRYAMGWYRQAPGKERELVAAITQSGDSTYYADSVKGRFTISRDNAKNTVYLQMNSLKPEDTAVYYCAAAGGPYRYNYWGQGTQVTVSS
- polyreactivity (PSR sort gate): high polyreactivity

Sequence: QVQLVESGGGLVQAGGSLRLSCAASGRTFKWYAMGWYRQAPGKERELVAGISRGAGRTYYADSVKWRFTISRDNAKNTFYLEMNSLKPEDTAVYYFAASPVRDGKVIDGRDYWGQGTQVTVSS
- polyreactivity (PSR sort gate): high polyreactivity

Sequence: QVQLVESGGGLVQAGGILRLSCAARTFVNYDMGWTRQAHGKERELVAAISSSGGSTNYADSVKGRFTISRDNAKNTVYLQMKSLKPEDTAVYYCAAASRRQVIPAMYYWGQGTQVTVSS
- polyreactivity (PSR sort gate): high polyreactivity

Sequence: QVQLVESGGGLVQAGGSLRLICAASGFSFRYYDMGWYRQAPGKERELVAAISRSGGRTYYADSVKGRFTISRDNAKNSVYLQMNSLNPEDTAVYYCNAVYNVVLSRVIYARGYWGQGTQVTVSS
- polyreactivity (PSR sort gate): high polyreactivity

Sequence: QVQLVESGGGLVQAGGSLRLSCAASGSTILSNAMGWYRQAPGKERELVARITSGGSTHYADSVKGRFTISRDNAKNTVYLQMNSLKPEDTAVYYCNADYWFVEYDYWGQGTQVTVSS
- polyreactivity (PSR sort gate): low polyreactivity

Sequence: QVQLQESRGGLLQAGGSLCLSCAASGNIIFDGDMRWYRQAPGKEREFVAAINPGGSAYYADSVKGRLPLAAITHTVYLQLNSLNPPDTAVYYCAAKLFDVYGYYYWGQGTHVTVSS
- polyreactivity (PSR sort gate): low polyreactivity

Sequence: QVQLVESGGGLVQAGGSLRLSCAASGRIFAGYAMGWSRQAPGKERELVASIRSSGSTYYADSVKGRFTISRDNAKNTVYLQMNSLKPEDTAVYYCATTGRRWYYPYHYWGQGTQVTVSS
- polyreactivity (PSR sort gate): high polyreactivity
